Data reported in patent US20220372112A1 (KEYMED BIOSCIENCES, published 2022).

T1: human Claudin 18.2 (human, UniProt P56856-2 1-261)
T1 construct: whole, on cells
T1 sequence (looked up): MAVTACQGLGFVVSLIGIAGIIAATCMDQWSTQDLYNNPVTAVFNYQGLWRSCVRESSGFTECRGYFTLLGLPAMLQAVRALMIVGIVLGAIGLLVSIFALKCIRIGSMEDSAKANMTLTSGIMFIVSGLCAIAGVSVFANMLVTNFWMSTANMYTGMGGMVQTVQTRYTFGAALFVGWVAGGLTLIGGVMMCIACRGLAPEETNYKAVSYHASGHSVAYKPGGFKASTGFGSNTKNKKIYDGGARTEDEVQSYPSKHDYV


Molecular target: T1, human Claudin 18.2
Assay: flow cytometry (iQue) on cells, antibody from 100 nM in 5-fold steps; cell line not named in Example 5
Procedure: The cells at logarithmic growth phase were taken, blocked with 3% BSA for 30 minutes, plated at 5×10⁴ cells/100 μL into a U-shaped 96-well plate, centrifuged at 1100 rpm for 3 minutes, the supernatant was discarded, the cells were gently patted and loosed, 50 μL of antibody diluted according to the series was added to each well (antibody concentration starts from 100 nM, 5 times dilution in 8 series), incubated at 4° C. for 1 hour. After the incubation, 140 μL of 0.5% BSA was added to each well to wash 3 times, AF 647 APC anti-human secondary antibody was added with 30 μL/well and incubated at 4° C. for 40 minutes. After the incubation, 140 μL of 0.5% BSA was added to each well to wash 3 times, and finally resuspended each well with 50 μL PBS for iQue (Intellicyt, USA) detection (shown in Table 2).

| Binder | EC50 [nM] |
| --- | --- |
| h15F9.v25 (antibody, V domains shown, Humanized; also called 15F9VLv2 + 15F9VHv5) VH: QIQLVQSGSELKKPGASVKVSCKASGYTFTNYGINWVRQAPGQGLEWMGWINPNTGETTYAEGFTGRFVLSWDTSVSTAYLQISSLKAEDTAVYFCARLYYGNRFDSWGQGTLVTVSS VL: DIVMTQSPDSLAVSLGERATINCKSSQSLLNSGNQRNYLAWYQQKPGQPPKLLIYWASTRESGVPDRFSGSGSGTDFTLTISSLQAEDVAVYYCQQAYYYPLTFGGGTKVEIK | 0.773 |
| h18A9.v12 (antibody, V domains shown, Humanized; also called 18A9VLv1 + 18A9VHv2) VH: QVQLVQSGAEVKKPGSSVKVSCKPSGYTFTNYLIDWVRQAPGQGLEWMGGINPGSGDTVYNEKFQGRVTLTADESTSTAYMELSSLRSEDTAVYFCARRVRGNSFDSWGQGTLVTVSS VL: DIVMTQSPDSLAVSLGERATINCKSSQSLLNSGNQKNYLTWYQQKPGQPPKLLIYWASTRESGVPDRFSGSGSGKDFTLTISSLQAEDVAVYYCQNNYFYPLTFGGGTKVEIK | 0.913 |
| h15F9.v36 (antibody, V domains shown, Humanized; also called 15F9VLv3 + 15F9VHv6) VH: QIQLVQSGSELKKPGASVKVSCKASGYTFTNYGINWVRQAPGQGLEWMGWINPGTGETTYAEGFTGRFVLSWDTSVSTAYLQISSLKAEDTAVYFCARLYYGNRFDSWGQGTLVTVSS VL: not shown | 0.786 |
| h18A9.v16 (antibody, V domains shown, Humanized; also called 18A9VLv1 + 18A9VHv6) VH: QVQLVQSGAEVKKPGASVKVSCKPSGYAFTNYLIDWVRQAPGQGLEWMGGINPGSGDTVYNEKFQGRVTLTADKSSSTAYMELSSLRSEDTAVYFCARRVRGNSFDSWGQGTLVTVSS VL: DIVMTQSPDSLAVSLGERATINCKSSQSLLNSGNQKNYLTWYQQKPGQPPKLLIYWASTRESGVPDRFSGSGSGKDFTLTISSLQAEDVAVYYCQNNYFYPLTFGGGTKVEIK | 0.799 |
| h15F9.v26 (antibody, V domains shown, Humanized; also called 15F9VLv2 + 15F9VHv6) VH: QIQLVQSGSELKKPGASVKVSCKASGYTFTNYGINWVRQAPGQGLEWMGWINPGTGETTYAEGFTGRFVLSWDTSVSTAYLQISSLKAEDTAVYFCARLYYGNRFDSWGQGTLVTVSS VL: DIVMTQSPDSLAVSLGERATINCKSSQSLLNSGNQRNYLAWYQQKPGQPPKLLIYWASTRESGVPDRFSGSGSGTDFTLTISSLQAEDVAVYYCQQAYYYPLTFGGGTKVEIK | 1.02 |
| h18A9.v14 (antibody, V domains shown, Humanized; also called 18A9VLv1 + 18A9VHv4) VH: QVQLVQSGAEVKKPGSSVKVSCKASGYTFTNYLIDWVRQAPGQGLEWMGGINPGSGDTVYNEKFQGRVTLTADKSSMTAYMELSSLRSEDTAVYFCARRVRGNSFDSWGQGTLVTVSS VL: DIVMTQSPDSLAVSLGERATINCKSSQSLLNSGNQKNYLTWYQQKPGQPPKLLIYWASTRESGVPDRFSGSGSGKDFTLTISSLQAEDVAVYYCQNNYFYPLTFGGGTKVEIK | 0.548 |
| h15F9.v15r2 (antibody, V domains shown, Humanized; also called 15F9VLv1 + 15F9VHv5r2) VH: EVQLVQSGSELKKPGASVKVSCKASGYTFTNYGINWVRQAPGQGLEWMGWINPYTGETTYAEEFKGRFVFSLDTSVSTAYLQISSLKAEDTAVYFCARLYYGNRFDSWGQGTLVTVSS VL: DIVMTQSPDSLAVSLGERATINCKSSQSLLNSGNQRNYLTWYQQKPGQPPKLLIYWASTRESGVPDRFSGSGSGTDFTLTISSLQAEDVAVYYCQNAYYYPLTFGGGTKVEIK | 1.65 |
| h15F9.v35 (antibody, V domains shown, Humanized; also called 15F9VLv3 + 15F9VHv5) VH: QIQLVQSGSELKKPGASVKVSCKASGYTFTNYGINWVRQAPGQGLEWMGWINPNTGETTYAEGFTGRFVLSWDTSVSTAYLQISSLKAEDTAVYFCARLYYGNRFDSWGQGTLVTVSS VL: not shown | 0.951 |
| h15F9.v15r1 (antibody, V domains shown, Humanized; also called 15F9VLv1 + 15F9VHv5r1) VH: QVQLVQSGSELKKPGASVKVSCKASGYTFTNYGINWVRQAPGQGLEWMGWINPNTGETTYAEEFKGRFVFSLDTSVSTAYLQISSLKAEDTAVYFCARLYYGNRFDSWGQGTLVTVSS VL: DIVMTQSPDSLAVSLGERATINCKSSQSLLNSGNQRNYLTWYQQKPGQPPKLLIYWASTRESGVPDRFSGSGSGTDFTLTISSLQAEDVAVYYCQNAYYYPLTFGGGTKVEIK | 2.53 |
| h18A9.v15 (antibody, V domains shown, Humanized; also called 18A9VLv1 + 18A9VHv5) VH: QVQLVQSGAEVKKPGSSVKVSCKPSGYTFTNYLIDWVRQAPGQGLEWMGGINPGSGDTVYNEKFQGRVTITADESTSTAYMELSSLRSEDTAVYFCARRVRGNSFDSWGQGTLVTVSS VL: DIVMTQSPDSLAVSLGERATINCKSSQSLLNSGNQKNYLTWYQQKPGQPPKLLIYWASTRESGVPDRFSGSGSGKDFTLTISSLQAEDVAVYYCQNNYFYPLTFGGGTKVEIK | 1.41 |
| h18A9.v22 (antibody, V domains shown, Humanized; also called 18A9VLv2 + 18A9VHv2) VH: QVQLVQSGAEVKKPGSSVKVSCKPSGYTFTNYLIDWVRQAPGQGLEWMGGINPGSGDTVYNEKFQGRVTLTADESTSTAYMELSSLRSEDTAVYFCARRVRGNSFDSWGQGTLVTVSS VL: not shown | 0.822 |
| h15F9.v35r2 (antibody, V domains shown, Humanized; also called 15F9VLv3 + 15F9VHv5r2) VH: EVQLVQSGSELKKPGASVKVSCKASGYTFTNYGINWVRQAPGQGLEWMGWINPYTGETTYAEEFKGRFVFSLDTSVSTAYLQISSLKAEDTAVYFCARLYYGNRFDSWGQGTLVTVSS VL: not shown | 0.879 |
| h18A9.v21 (antibody, V domains shown, Humanized; also called 18A9VLv2 + 18A9VHv1) VH: QVQLVQSGAEVKKPGSSVKVSCKPSGYAFTNYLIDWVRQAPGQGLEWMGGINPGSGDTVYNEKFQGRVTLTADKSSMTAYMELSSLRSEDTAVYFCARRVRGNSFDSWGQGTLVTVSS VL: not shown | 1.03 |
| h18A9.v11 (antibody, V domains shown, Humanized; also called 18A9VLv1 + 18A9VHv1) VH: QVQLVQSGAEVKKPGSSVKVSCKPSGYAFTNYLIDWVRQAPGQGLEWMGGINPGSGDTVYNEKFQGRVTLTADKSSMTAYMELSSLRSEDTAVYFCARRVRGNSFDSWGQGTLVTVSS VL: DIVMTQSPDSLAVSLGERATINCKSSQSLLNSGNQKNYLTWYQQKPGQPPKLLIYWASTRESGVPDRFSGSGSGKDFTLTISSLQAEDVAVYYCQNNYFYPLTFGGGTKVEIK | 0.645 |
| h18A9.v13 (antibody, V domains shown, Humanized; also called 18A9VLv1 + 18A9VHv3) VH: QVQLVQSGAEVKKPGSSVKVSCKPSGYTFTNYLIDWVRQAPGQGLEWMGGINPGSGDTVYNEKFQGRVTLTADKSSMTAYMELSSLRSEDTAVYYCARRVRGNSFDSWGQGTLVTVSS VL: DIVMTQSPDSLAVSLGERATINCKSSQSLLNSGNQKNYLTWYQQKPGQPPKLLIYWASTRESGVPDRFSGSGSGKDFTLTISSLQAEDVAVYYCQNNYFYPLTFGGGTKVEIK | 0.761 |
| h15F9.v35r1 (antibody, V domains shown, Humanized; also called 15F9VLv3 + 15F9VHv5r1) VH: QVQLVQSGSELKKPGASVKVSCKASGYTFTNYGINWVRQAPGQGLEWMGWINPNTGETTYAEEFKGRFVFSLDTSVSTAYLQISSLKAEDTAVYFCARLYYGNRFDSWGQGTLVTVSS VL: not shown | 1.2 |
| h15F9.v25r2 (antibody, V domains shown, Humanized; also called 15F9VLv2 + 15F9VHv5r2) VH: EVQLVQSGSELKKPGASVKVSCKASGYTFTNYGINWVRQAPGQGLEWMGWINPYTGETTYAEEFKGRFVFSLDTSVSTAYLQISSLKAEDTAVYFCARLYYGNRFDSWGQGTLVTVSS VL: DIVMTQSPDSLAVSLGERATINCKSSQSLLNSGNQRNYLAWYQQKPGQPPKLLIYWASTRESGVPDRFSGSGSGTDFTLTISSLQAEDVAVYYCQQAYYYPLTFGGGTKVEIK | 1.61 |
| h15F9.v16 (antibody, V domains shown, Humanized; also called 15F9VLv1 + 15F9VHv6) VH: QIQLVQSGSELKKPGASVKVSCKASGYTFTNYGINWVRQAPGQGLEWMGWINPGTGETTYAEGFTGRFVLSWDTSVSTAYLQISSLKAEDTAVYFCARLYYGNRFDSWGQGTLVTVSS VL: DIVMTQSPDSLAVSLGERATINCKSSQSLLNSGNQRNYLTWYQQKPGQPPKLLIYWASTRESGVPDRFSGSGSGTDFTLTISSLQAEDVAVYYCQNAYYYPLTFGGGTKVEIK | 0.705 |
| h18A9.v23 (antibody, V domains shown, Humanized; also called 18A9VLv2 + 18A9VHv3) VH: QVQLVQSGAEVKKPGSSVKVSCKPSGYTFTNYLIDWVRQAPGQGLEWMGGINPGSGDTVYNEKFQGRVTLTADKSSMTAYMELSSLRSEDTAVYYCARRVRGNSFDSWGQGTLVTVSS VL: not shown | 1.17 |
| h15F9.v15 (antibody, V domains shown, Humanized; also called 15F9VLv1 + 15F9VHv5) VH: QIQLVQSGSELKKPGASVKVSCKASGYTFTNYGINWVRQAPGQGLEWMGWINPNTGETTYAEGFTGRFVLSWDTSVSTAYLQISSLKAEDTAVYFCARLYYGNRFDSWGQGTLVTVSS VL: DIVMTQSPDSLAVSLGERATINCKSSQSLLNSGNQRNYLTWYQQKPGQPPKLLIYWASTRESGVPDRFSGSGSGTDFTLTISSLQAEDVAVYYCQNAYYYPLTFGGGTKVEIK | 1.67 |
| h18A9.v17 (antibody, V domains shown, Humanized; also called 18A9VLv1 + 18A9VHv7) VH: QVQLVQSGAEVKKPGASVKVSCKPSGYTFTNYLIDWVRQAPGQGLEWMGGINPGSGDTVYNEKFQGRVTLTADTSTSTVYMELSSLRSEDTAVYFCARRVRGNSFDSWGQGTLVTVSS VL: DIVMTQSPDSLAVSLGERATINCKSSQSLLNSGNQKNYLTWYQQKPGQPPKLLIYWASTRESGVPDRFSGSGSGKDFTLTISSLQAEDVAVYYCQNNYFYPLTFGGGTKVEIK | 1.43 |
| h15F9.v25r1 (antibody, V domains shown, Humanized; also called 15F9VLv2 + 15F9VHv5r1) VH: QVQLVQSGSELKKPGASVKVSCKASGYTFTNYGINWVRQAPGQGLEWMGWINPNTGETTYAEEFKGRFVFSLDTSVSTAYLQISSLKAEDTAVYFCARLYYGNRFDSWGQGTLVTVSS VL: DIVMTQSPDSLAVSLGERATINCKSSQSLLNSGNQRNYLAWYQQKPGQPPKLLIYWASTRESGVPDRFSGSGSGTDFTLTISSLQAEDVAVYYCQQAYYYPLTFGGGTKVEIK | 1.72 |
